Consider 18 substances from patent US20170355766A1.

Holding throughout (test): SPR (Biacore)
Assay [1] addresses FcγRIIaR (human) (UniProt P12318).
Assay [2] concerns the target human FcγRIIb receptor protein (R&D Systems) (human) (UniProt P31994).
Assay [3] deals with human V158 FcγRIIIa receptor protein (6xHis and GST tags) (human) (UniProt P08637).
Assay [4] deals with human H131 FcγRIIa receptor protein (6xHis and GST tags) (human) (UniProt P12318).
The target in assay [5] is human FcγRI receptor protein (R&D Systems) (human) (UniProt P12314).
human FcγRI receptor protein (R&D Systems) (human), sequence (P12314 16-288 limits assumed): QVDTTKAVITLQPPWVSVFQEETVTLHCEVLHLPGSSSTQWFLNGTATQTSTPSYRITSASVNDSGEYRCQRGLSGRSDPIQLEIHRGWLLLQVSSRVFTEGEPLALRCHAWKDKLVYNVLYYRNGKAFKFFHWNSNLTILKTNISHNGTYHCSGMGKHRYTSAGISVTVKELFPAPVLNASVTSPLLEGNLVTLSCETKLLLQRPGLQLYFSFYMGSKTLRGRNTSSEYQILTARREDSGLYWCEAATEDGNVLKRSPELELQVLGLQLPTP
For assay [6], the target named is FcγRIIIaF (human) (UniProt P08637).
FcγRIIIaF (human), sequence (P08637 17-208 limits assumed): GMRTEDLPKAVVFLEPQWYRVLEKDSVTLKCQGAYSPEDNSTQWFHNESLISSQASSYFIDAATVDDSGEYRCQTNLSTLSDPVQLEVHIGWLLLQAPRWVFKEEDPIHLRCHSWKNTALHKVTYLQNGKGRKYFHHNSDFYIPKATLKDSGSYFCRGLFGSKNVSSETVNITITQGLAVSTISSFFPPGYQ

human V158 FcγRIIIa receptor protein (6xHis and GST tags) (human), sequence (P08637 17-208 F176V limits assumed): as the sequence (P08637 17-208 limits assumed) above, with F160V counted along it
FcγRIIaR (human), sequence (P12318 34-217 H167R limits assumed): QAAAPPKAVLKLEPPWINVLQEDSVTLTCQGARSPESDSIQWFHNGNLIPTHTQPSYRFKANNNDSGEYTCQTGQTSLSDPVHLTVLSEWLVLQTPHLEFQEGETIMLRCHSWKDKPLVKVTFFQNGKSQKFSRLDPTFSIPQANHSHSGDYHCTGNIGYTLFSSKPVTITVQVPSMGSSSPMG
human FcγRIIb receptor protein (R&D Systems) (human), sequence (P31994 46-217 limits assumed): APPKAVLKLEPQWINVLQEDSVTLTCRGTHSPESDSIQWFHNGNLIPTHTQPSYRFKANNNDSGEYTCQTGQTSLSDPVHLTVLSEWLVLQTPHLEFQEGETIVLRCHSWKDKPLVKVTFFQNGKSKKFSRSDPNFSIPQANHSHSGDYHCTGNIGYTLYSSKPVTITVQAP
human H131 FcγRIIa receptor protein (6xHis and GST tags) (human), sequence (P12318 34-217 limits assumed): as the sequence (P12318 34-217 H167R limits assumed) above, with R134H counted along it

In the case of G236F (antibody), the Fold FcγRIIaR in assay [1] is 0.00859 fold. This substance displayed a Fold FcγRIIb in assay [2] of 0.0147 fold.

Turning to G236K (antibody), in assay [1], the Fold FcγRIIaR was found to be 0.00859 fold. Also, the Fold FcγRIIb in assay [2] came to 0.0147 fold.

The substance G236R (antibody) registered a Fold FcγRIIaR in assay [1] of 0.00859 fold. The substance further registered a Fold FcγRIIb in assay [2] of 0.0147 fold.

G236S (antibody) registered a Fold FcγRIIIaV in assay [3] of 0.00367 fold.

In turn, G236T (antibody) gave a Fold FcγRIIb in assay [2] of 0.00225 fold.

On to G236V (antibody), for which the Fold FcγRIIb in assay [2] was 0.0147 fold.

For the substance G237E (antibody), the Fold FcγRIIaR in assay [1] turned out to be 0.00859 fold. For the same substance, the Fold FcγRIIb in assay [2] was 0.0147 fold.

As to G237K (antibody), the Fold FcγRIIaR in assay [1] was 0.00859 fold. In assay [2], this substance showed a Fold FcγRIIb of 0.0147 fold.

For the substance G237P (antibody), in assay [1], the Fold FcγRIIaR is 0.00859 fold. In assay [2], the Fold FcγRIIb was 0.0147 fold.

The substance L234K (antibody) yielded a Fold FcγRIIaR in assay [1] of 0.00859 fold. In assay [2], this substance displayed a Fold FcγRIIb of 0.0147 fold.

L235N (antibody): the Fold FcγRIIb in assay [2] was 0.147 fold.

Regarding L235P (antibody), the Fold FcγRIIb in assay [2] is 0.00585 fold.

For the substance L235S (antibody), in assay [1], the Fold FcγRIIaR is 0.00859 fold. Moreover, in assay [2], the Fold FcγRIIb turned out to be 0.0147 fold.

Substance S267E/A327D (antibody) gave a Fold FcγRIIIaV in assay [3] of 0.00199 fold.

On to S267E/A327E (antibody), for which the Fold FcγRIIIaV in assay [3] was 0.00894 fold.

S267E/H268E/L328F (antibody) had a Fold FcγRIIIaV in assay [3] of 0.092 fold.

The substance “anti-CD19 IgG1/2 ELLGG antibody with S267E/L328F” returned a Fold FcγRIIaH in assay [4] of 0.993 fold. Also, the Fold FcγRI in assay [5] stood at 2.35 fold. The same substance returned a Fold FcγRIIaR in assay [1] of 269 fold. For the same substance, the Fold FcγRIIb in assay [2] was 221 fold.

“anti-CD19 WT IgG1 antibody (HuAM4G7 Fv, native human IgG1 Fc)” displayed a Fold FcγRIIIaF in assay [6] of 1 fold.
